Test system: 3-methylcrotonic acid
Assay type: biochemical, Yersinia frederiksenii
Design: key: “+” representing a low increase in activity; “++++” representing a high increase in activity

B1: G380V-K391L-L432W-L434M (protein)
chain: MFLKSLREQINLLKRQGDLRIINRPVDSYLEAAAIIRRSTETKAPVPLMTNIKGYPGCSIVGGLAALSSNPEYPLSRVAMSLGLSTTASAQSIVQYLIDGLKKTPYLPVEIDSNSAPCKQNILRGEDASLAHFPIPQVHQHDGNRYVNTWGVFIVESPDGQWCNWSIQRVQYLNDRQMIALVFPSQHISDIWEEWVKIGKPMPYALVQGCEPIVPYIAGLPLLERNVNEAEYIGALYGKGIEVVKCETHDLRVPASSEVVIEGYFAITREGVEGPFGEFAGYIPNENSLQPILSITAISWQDDPIWPVVAEGKPVDEYHTCSGIGDAAAIQNVLLTANLPVSFVWVPLYSACHLMIVSINRHWRQTHPDLTSEQLTKKVVDVIHQTRNSILLPKIVVLDDDVDPADTESLLWALATRIHPERKRYFYESCIWPMLSCYSEEERHNRKGKRVIIDALLPENHGAISSFDYAYPDDIKQRVLMHWETDFSHD
- Activity relative to WT: +

Source: patent publication US20250327097A1, “ORGANISMS PRODUCING LESS CROTONIC ACID” (Global Bioenergies, priority 2021, published 2025)
